Patent US20240398942A1 (CHIA TAI TIANQING PHARMACEUTICAL GROUP, published 2024)
Residue numbers refer to the chain shown, from its start. Read-outs that look alike come from different tables or passages of the source.

B1: BM1 (dacetuzumab) (antibody, human IgG1, kappa, V domains shown)
VH: EVQLVESGGGLVQPGGSLRLSCAASGYSFTGYYIHWVRQAPGKGLEWVARVIPNAGGTSYNQKFKGRFTLSVDNSKNTAYLQMNSLRAEDTAVYYCAREGIYWWGQGTLVTVSS
VL: DIQMTQSPSSLSASVGDRVTITCRSSQSLVHSNGNTFLHWYQQKPGKAPKLLIYTVSNRFSGVPSRFSGSGSGTDFTLTISSLQPEDFATYFCSQTTHVPWTFGQGTKVEIKR
notes: Benchmark antibody, prepared in-house; also called CD40-BM1; benchmark
B2: BM2 (selicrelumab) (antibody, human IgG2, kappa, V domains shown)
VH: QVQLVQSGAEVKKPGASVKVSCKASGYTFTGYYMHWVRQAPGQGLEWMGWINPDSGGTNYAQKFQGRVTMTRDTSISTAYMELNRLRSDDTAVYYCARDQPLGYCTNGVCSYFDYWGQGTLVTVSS
VL: DIQMTQSPSSVSASVGDRVTITCRASQGIYSWLAWYQQKPGKAPNLLIYTASTLQSGVPSRFSGSGSGTDFTLTISSLQPEDFATYYCQQANIFPLTFGGGTKVEIKR
notes: Benchmark antibody, prepared in-house; also called CD40-BM2; benchmark
B3: chimeric antibody C1H1 (antibody, human IgG1, kappa, V domains shown)
VH: EVKLVESGGGLVKPGASLKLSCAASGFTFSNYGISWVRQTSDKRLEWVASISSGGDNTYYPDNVKGRFTISRENAKNTLYLQMSSLKSEDTALYYCARAGEKAMDYWGQGTSVTVSS
VL: DIVLTQSPVTLSVTPGDSVSLSCRASQTINNNLHWYQQKSHESPRLLIKYASQSISGIPSRFSGSGSGTDFTLSINSVETEDFGIYFCQQFSSWPLTFGAGTKLELKR
notes: also called Chimeric C1H1
B4: humanized antibody huC1H1-V1 (antibody, human IgG2, kappa, V domains shown)
VH: EVQLVESGGGLVKPGGSLRLSCAASGFTFSNYGISWVRQAPGKGLEWVASISSGGDNTYYPDNVKGRFTISRDNAKNSLYLQMNSLRAEDTAVYYCARAGEKAMDYWGQGTLVTVSS
VL: EIVLTQSPATLSLSPGERATLSCRASQTINNNLHWYQQKPGQAPRLLIKYASQSISGIPARFSGSGSGTDFTLTISSLEPEDFAVYFCQQFSSWPLTFGGGTKVEIKR
notes: Human IgG2 / kappa
B5: humanized antibody huC1H1-V2 (antibody, human IgG2, kappa, V domains shown)
VH: B4 VH with A49S
VL: B4 VL
notes: Human IgG2 / kappa

How the values were obtained:
[1] = biological target: T1, cynomolgus monkey CD40-his protein (Acro biosystems, Cat. No. CD0-C52H6) (cynomolgus monkey, UniProt G7PG38 21-193); test: SPR (Biacore T200), antibody captured on anti-human IgG chip, CD40-his as analyte, 1:1 fit
T1 construct: Bought protein; not shown: His tag
From the text: Briefly, a goat anti-human IgG (GE Healthcare, Cat. No. BR100839, human antibody capture kit) was covalently linked to a CM5 chip (GE Healthcare, Cat. No. BR100530, carboxymethylated dextran-coated chip) via the primary amine group using a standard amine coupling kit supplied by Biacore (GE Healthcare, Pittsburgh, PA, USA). Unreacted portions on the biosensor surface were blocked with ethanolamine. Then, the anti-CD40 antibody of the present application and two benchmark antibodies (BM1 (dacetuzumab, Genentech Inc., also referred to CD40-BM1, prepared in-house; the heavy and light chain amino acid sequences are set forth in SEQ ID NOs: 40 and 41, respectively) and BM2 (selicrelumab, Abgenix Inc., also referred to CD40-BM2, prepared in-house; the heavy and light chain amino acid sequences are set forth in SEQ ID NOS: 42 and 43, respectively)) at a concentration of 66.67 nM were directed through the chip at a flow rate of 10 μL/min. Then, serially diluted recombinant human CD40-his (Acro biosystems, Cat. No. CD0-H5228, serially 2-fold diluted from 80 nM in HBS-EP⁺ buffer (supplied by Biacore)) or cynomolgus monkey CD40-his protein (Acro biosystems, Cat. No. CD0-C52H6, serially 2-fold diluted from 80 nM in HBS-EP⁺ buffer (supplied by Biacore)) was directed through the chip at a flow rate of 30 μL/min. The antigen-antibody binding kinetics was tracked for 2 min and the dissociation kinetics was tracked for 10 min. The association and dissociation curves were fitted to a 1:1 Langmuir binding model using BIAcore evaluation software. KD, Kₐ, and Kd values were determined.

[2] = biological target: T2, human CD40-Fc protein (human, biotinylated (sites not given) in the capture ELISA and the benchmark blocking ELISA; not biotinylated in the ligand blocking ELISA); test: capture ELISA: antibody captured on coated goat anti-human IgG F(ab')2, biotinylated human CD40-Fc 1.15 nM, streptavidin-HRP, OD(450-630)
T2 construct: also called biotinylated human CD40-Fc
Description: (§1) The plate was washed once with a washing buffer (PBS+0.05% v/v of Tween-20, PBST) and then blocked with 200 μL/well blocking buffer (PBST containing 5% w/v of skim milk) for 2 h at 37° C. The plate was washed 4 times, and the anti-CD40 antibody of the present application, BM1, BM2, and a negative control hIgG (human immunoglobulin for intravenous injection (pH 4), Hualan Biological Engineering Inc.) serially 5-fold diluted from 66.7 nM in a PBST containing 2.5% w/v of skim milk was added at 100 μL per well. The plate was incubated for 40 min at 37° C. and washed 4 times. A biotinylated human CD40-Fc protein (amino acid residues 21-193 of SEQ ID NO: 30 linked to the N terminus of amino acid residues 99-330 of SEQ ID NO: 28, dissolved in PBST containing 2.5% w/v of skim milk at a concentration of 1.15 nM) was added at 100 μL/well to a 96-well plate coated with the anti-CD40 antibody. The plate was incubated at 37° C. for 40 min and washed 4 times. An HRP-labeled streptavidin (diluted at 1:10000 in PBST, Jackson Immuno Research, Cat. No. 016-030-084) was added at 100 μL/well, and the plate was incubated at 37° C. for another 40 min. After the last wash, 100 μL/well of ELISA substrate TMB (Innoreagents, Cat. No. TMB-S-002) was added and the plate was incubated at room temperature. After 3-10 min, the reaction was stopped by adding 1 M H₂SO₄ at 50 µL/well, and the absorbance of each well was read on a microplate reader using the dual wavelength mode (TMB detection wavelength: 450 nm, reference wavelength: 630 nm). Curves of OD(450-630) values vs. antibody concentration were plotted. Data were analyzed using Graphpad Prism software, and EC₅₀ values were obtained.

[3] = biological target: T2, human CD40-Fc protein; test: as above; remark: listed apart in the source
Description: as §1

[4] = biological target: T3, recombinant human CD40-his (Acro biosystems, Cat. No. CD0-H5228) (human, UniProt P25942 21-193); test: BLI (Octet RED 96), antibody captured on AHC sensor, human CD40-his as analyte, 1:1 fit
T3 construct: Bought protein; also called human CD40-his protein; not shown: His tag
Description: (§2) After six days of culture in a shake flask, the cell supernatant containing the humanized antibodies huC1H1-V1 to huC1H1-V4 was harvested and the binding affinity of the antibodies to human CD40 was determined on an Octet system (Fortebio, Octet RED 96) according to the following procedures. Briefly, an anti-human IgG Fc capture (AHC) biosensor (from ForteBio) was pre-soaked in a 10 mM glycine solution (pH 1.5) for 3 s, and then soaked in a running buffer (PBST containing 0.5% w/v of BSA) for 3 s. The pre-soaking and soaking procedures were repeated 3 times. Then, the sensor was soaked in the cell supernatant containing the humanized anti-CD40 antibody, chimeric antibody C1H1 dissolved in HBS-EP⁺ buffer at a concentration of 5 μg/mL, or the benchmark dissolved in HBS-EP⁺ buffer at a concentration of 5 μg/mL for 120 s, and then soaked in the running buffer for 5 min. The new baseline was run in the running buffer for 180 s. The sensor was then soaked for 120 s in human CD40-his protein (Acro biosystems, Cat. No. CD0-H5228) 2-fold serially diluted from 40 nM in the running buffer and for 10 min in the running buffer […]. Finally, the sensor was pre-soaked in a 10 mM glycine solution (pH 1.5) for 3 s, and then soaked in the running buffer for 3 s. The pre-soaking and soaking procedures were repeated 3 times. The association and dissociation curves were fitted to a 1:1 Langmuir binding model using ForteBio Data Analysis 8.1.

[5] = biological target: T3, recombinant human CD40-his (Acro …); test: BLI (Octet RED 96), antibody captured from cell supernatant on AHC sensor, human CD40-his as analyte, 1:1 fit
Description: as §2

T2 sequence (chain, as listed by the source limits assumed): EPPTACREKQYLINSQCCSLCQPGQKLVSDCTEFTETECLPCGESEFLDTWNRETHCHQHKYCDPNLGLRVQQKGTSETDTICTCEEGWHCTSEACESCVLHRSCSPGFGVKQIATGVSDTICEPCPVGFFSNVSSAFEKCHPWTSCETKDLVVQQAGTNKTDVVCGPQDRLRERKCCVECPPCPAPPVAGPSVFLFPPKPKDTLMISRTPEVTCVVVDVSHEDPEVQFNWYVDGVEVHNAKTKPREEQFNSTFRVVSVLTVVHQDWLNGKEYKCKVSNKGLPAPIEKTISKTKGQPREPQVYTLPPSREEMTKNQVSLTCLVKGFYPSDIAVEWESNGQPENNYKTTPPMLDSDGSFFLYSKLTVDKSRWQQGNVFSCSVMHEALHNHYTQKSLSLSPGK
T3 sequence (P25942 21-193 limits assumed): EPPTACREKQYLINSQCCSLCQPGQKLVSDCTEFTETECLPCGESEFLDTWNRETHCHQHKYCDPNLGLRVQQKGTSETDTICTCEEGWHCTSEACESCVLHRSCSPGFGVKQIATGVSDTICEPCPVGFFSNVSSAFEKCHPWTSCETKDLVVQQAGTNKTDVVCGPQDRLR

| Binder | Kd [1] [nM] | koff [1] [s⁻¹] | kon [1] [M⁻¹ s⁻¹] | EC50 [2] [nM] | EC50 [3] [nM] | Kd [4] [nM] | koff [4] [s⁻¹] | kon [4] [M⁻¹ s⁻¹] | Kd [5] [nM] | koff [5] [s⁻¹] | kon [5] [M⁻¹ s⁻¹] |
| --- | --- | --- | --- | --- | --- | --- | --- | --- | --- | --- | --- |
| B1 | 9.89 | 0.00616 | 623000 | 0.628 | 0.463 |  |  |  |  |  |  |
| B2 |  |  |  | 1.36 | 0.909 | 1.12 | 0.000979 | 874000 |  |  |  |
| B3 | 1.06 | 0.00148 | 1.39e+06 |  |  | 0.633 | 0.000929 | 1.47e+06 |  |  |  |
| B4 |  |  |  |  |  |  |  |  | 0.904 | 0.00128 | 1.41e+06 |
| B5 |  |  |  |  |  |  |  |  | 0.596 | 0.000981 | 1.65e+06 |
